T1: XENP23311 (His-tagged NKG2D-Fc) (human, UniProt P26718 78-216)
T1 chain: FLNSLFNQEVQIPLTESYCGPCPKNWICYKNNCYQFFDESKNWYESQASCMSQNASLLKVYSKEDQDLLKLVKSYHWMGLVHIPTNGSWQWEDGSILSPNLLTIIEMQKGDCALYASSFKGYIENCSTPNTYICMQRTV


Target: T1, XENP23311 (His-tagged NKG2D-Fc)
Assay: Octet

Kd [nM]	Binder
327	XENP40891 (LB_1002, mAb-scFv VHVL) (antibody) chain 1: EVQLLESGGGLVQPGGSLRLSCAVSGFSLSSYGVIWVRQAPGKGLEYVSWVSSGGSTNYASSVKGRFTISRDTSKNTVYLQMNSLRAEDTAVYFCARGATNSGTDIWGPGTLVTVSSASTKGPSVFPLAPSSKSTSGGTAALGCLVKDYFPEPVTVSWNSGALTSGVHTFPAVLQSSGLYSLSSVVTVPSSSLGTQTYICNVNHKPSDTKVDKKVEPKSCDKTHTCPPCPAPELLGGPSVFLFPPKPKDTLMISRTPEVTCVVVDVSHEDPEVKFNWYVDGVEVHNAKTKPREEEYNSTYRVVSVLTVLHQDWLNGKEYKCKVSNKALPAPIEKTISKAKGQPREPQVYTLPPSREEMTKNQVSLTCDVSGFYPSDIAVEWESDGQPENNYKTTPPVLDSDGSFFLYSKLTVDKSRWEQGDVFSCSVMHEALHNHYTQKSLSLSPGK chain 2: not shown chain 3: DIVMTQSPSSLSASVGDRVTITCRASQSINSWLSWYQQKPGKPPKLLIYGASNLASGVPSRFKGSGSGTDFTLTISSLQPEDFATYYCQNNYGIIAAGATFGGGTKVEIKRTVAAPSVFIFPPSDEQLKSGTASVVCLLNNFYPREAKVQWKVDNALQSGNSQESVTEQDSKDSTYSLSSTLTLSKADYEKHKVYACEVTHQGLSSPVTKSFNRGEC
28.8	XENP40558 (1D7B4, mAb-scFv VHVL) (antibody) chain 1: EVQLLESGGGLVQPGGSLRLSCAVSGFSLSSYGVIWVRQAPGKGLEYVSWVSSGGSTNYASSVKGRFTISRDTSKNTVYLQMNSLRAEDTAVYFCARGATNSGTDIWGPGTLVTVSSASTKGPSVFPLAPSSKSTSGGTAALGCLVKDYFPEPVTVSWNSGALTSGVHTFPAVLQSSGLYSLSSVVTVPSSSLGTQTYICNVNHKPSDTKVDKKVEPKSCDKTHTCPPCPAPELLGGPSVFLFPPKPKDTLMISRTPEVTCVVVDVSHEDPEVKFNWYVDGVEVHNAKTKPREEEYNSTYRVVSVLTVLHQDWLNGKEYKCKVSNKALPAPIEKTISKAKGQPREPQVYTLPPSREEMTKNQVSLTCDVSGFYPSDIAVEWESDGQPENNYKTTPPVLDSDGSFFLYSKLTVDKSRWEQGDVFSCSVMHEALHNHYTQKSLSLSPGK chain 2: not shown chain 3: DIVMTQSPSSLSASVGDRVTITCRASQSINSWLSWYQQKPGKPPKLLIYGASNLASGVPSRFKGSGSGTDFTLTISSLQPEDFATYYCQNNYGIIAAGATFGGGTKVEIKRTVAAPSVFIFPPSDEQLKSGTASVVCLLNNFYPREAKVQWKVDNALQSGNSQESVTEQDSKDSTYSLSSTLTLSKADYEKHKVYACEVTHQGLSSPVTKSFNRGEC
97.3	XENP41334 (LB_1002, 1+1 VLVH) (antibody) chain 1: EVQLLESGGGLVQPGGSLRLSCAVSGFSLSSYGVIWVRQAPGKGLEYVSWVSSGGSTNYASSVKGRFTISRDTSKNTVYLQMNSLRAEDTAVYFCARGATNSGTDIWGPGTLVTVSSASTKGPSVFPLAPSSKSTSGGTAALGCLVKDYFPEPVTVSWNSGALTSGVHTFPAVLQSSGLYSLSSVVTVPSSSLGTQTYICNVNHKPSDTKVDKKVEPKSCDKTHTCPPCPAPELLGGPSVFLFPPKPKDTLMISRTPEVTCVVVDVSHEDPEVKFNWYVDGVEVHNAKTKPREEEYNSTYRVVSVLTVLHQDWLNGKEYKCKVSNKALPAPIEKTISKAKGQPREPQVYTLPPSREEMTKNQVSLTCDVSGFYPSDIAVEWESDGQPENNYKTTPPVLDSDGSFFLYSKLTVDKSRWEQGDVFSCSVMHEALHNHYTQKSLSLSPGK chain 2: not shown chain 3: DIVMTQSPSSLSASVGDRVTITCRASQSINSWLSWYQQKPGKPPKLLIYGASNLASGVPSRFKGSGSGTDFTLTISSLQPEDFATYYCQNNYGIIAAGATFGGGTKVEIKRTVAAPSVFIFPPSDEQLKSGTASVVCLLNNFYPREAKVQWKVDNALQSGNSQESVTEQDSKDSTYSLSSTLTLSKADYEKHKVYACEVTHQGLSSPVTKSFNRGEC
680	XENP41342 (LB_1002, mAb-scFv VLVH) (antibody) chain 1: EVQLLESGGGLVQPGGSLRLSCAVSGFSLSSYGVIWVRQAPGKGLEYVSWVSSGGSTNYASSVKGRFTISRDTSKNTVYLQMNSLRAEDTAVYFCARGATNSGTDIWGPGTLVTVSSASTKGPSVFPLAPSSKSTSGGTAALGCLVKDYFPEPVTVSWNSGALTSGVHTFPAVLQSSGLYSLSSVVTVPSSSLGTQTYICNVNHKPSDTKVDKKVEPKSCDKTHTCPPCPAPELLGGPSVFLFPPKPKDTLMISRTPEVTCVVVDVSHEDPEVKFNWYVDGVEVHNAKTKPREEEYNSTYRVVSVLTVLHQDWLNGKEYKCKVSNKALPAPIEKTISKAKGQPREPQVYTLPPSREEMTKNQVSLTCDVSGFYPSDIAVEWESDGQPENNYKTTPPVLDSDGSFFLYSKLTVDKSRWEQGDVFSCSVMHEALHNHYTQKSLSLSPGK chain 2: not shown chain 3: DIVMTQSPSSLSASVGDRVTITCRASQSINSWLSWYQQKPGKPPKLLIYGASNLASGVPSRFKGSGSGTDFTLTISSLQPEDFATYYCQNNYGIIAAGATFGGGTKVEIKRTVAAPSVFIFPPSDEQLKSGTASVVCLLNNFYPREAKVQWKVDNALQSGNSQESVTEQDSKDSTYSLSSTLTLSKADYEKHKVYACEVTHQGLSSPVTKSFNRGEC
21.9	XENP40590 (1D7B4, 2+1 VHVL) (antibody) chain 1: EVQLLESGGGLVQPGGSLRLSCAVSGFSLSSYGVIWVRQAPGKGLEYVSWVSSGGSTNYASSVKGRFTISRDTSKNTVYLQMNSLRAEDTAVYFCARGATNSGTDIWGPGTLVTVSSASTKGPSVFPLAPSSKSTSGGTAALGCLVKDYFPEPVTVSWNSGALTSGVHTFPAVLQSSGLYSLSSVVTVPSSSLGTQTYICNVNHKPSDTKVDKKVEPKSCDKTHTCPPCPAPELLGGPSVFLFPPKPKDTLMISRTPEVTCVVVDVSHEDPEVKFNWYVDGVEVHNAKTKPREEEYNSTYRVVSVLTVLHQDWLNGKEYKCKVSNKALPAPIEKTISKAKGQPREPQVYTLPPSREEMTKNQVSLTCDVSGFYPSDIAVEWESDGQPENNYKTTPPVLDSDGSFFLYSKLTVDKSRWEQGDVFSCSVMHEALHNHYTQKSLSLSPGK chain 2: not shown chain 3: DIVMTQSPSSLSASVGDRVTITCRASQSINSWLSWYQQKPGKPPKLLIYGASNLASGVPSRFKGSGSGTDFTLTISSLQPEDFATYYCQNNYGIIAAGATFGGGTKVEIKRTVAAPSVFIFPPSDEQLKSGTASVVCLLNNFYPREAKVQWKVDNALQSGNSQESVTEQDSKDSTYSLSSTLTLSKADYEKHKVYACEVTHQGLSSPVTKSFNRGEC
359	XENP41341 (LB_1001, mAb-scFv VLVH) (antibody) chain 1: EVQLLESGGGLVQPGGSLRLSCAVSGFSLSSYGVIWVRQAPGKGLEYVSWVSSGGSTNYASSVKGRFTISRDTSKNTVYLQMNSLRAEDTAVYFCARGATNSGTDIWGPGTLVTVSSASTKGPSVFPLAPSSKSTSGGTAALGCLVKDYFPEPVTVSWNSGALTSGVHTFPAVLQSSGLYSLSSVVTVPSSSLGTQTYICNVNHKPSDTKVDKKVEPKSCDKTHTCPPCPAPELLGGPSVFLFPPKPKDTLMISRTPEVTCVVVDVSHEDPEVKFNWYVDGVEVHNAKTKPREEEYNSTYRVVSVLTVLHQDWLNGKEYKCKVSNKALPAPIEKTISKAKGQPREPQVYTLPPSREEMTKNQVSLTCDVSGFYPSDIAVEWESDGQPENNYKTTPPVLDSDGSFFLYSKLTVDKSRWEQGDVFSCSVMHEALHNHYTQKSLSLSPGK chain 2: not shown chain 3: DIVMTQSPSSLSASVGDRVTITCRASQSINSWLSWYQQKPGKPPKLLIYGASNLASGVPSRFKGSGSGTDFTLTISSLQPEDFATYYCQNNYGIIAAGATFGGGTKVEIKRTVAAPSVFIFPPSDEQLKSGTASVVCLLNNFYPREAKVQWKVDNALQSGNSQESVTEQDSKDSTYSLSSTLTLSKADYEKHKVYACEVTHQGLSSPVTKSFNRGEC
41.7	XENP41335 (1D2B4, 1+1 VLVH) (antibody) chain 1: EVQLLESGGGLVQPGGSLRLSCAVSGFSLSSYGVIWVRQAPGKGLEYVSWVSSGGSTNYASSVKGRFTISRDTSKNTVYLQMNSLRAEDTAVYFCARGATNSGTDIWGPGTLVTVSSASTKGPSVFPLAPSSKSTSGGTAALGCLVKDYFPEPVTVSWNSGALTSGVHTFPAVLQSSGLYSLSSVVTVPSSSLGTQTYICNVNHKPSDTKVDKKVEPKSCDKTHTCPPCPAPELLGGPSVFLFPPKPKDTLMISRTPEVTCVVVDVSHEDPEVKFNWYVDGVEVHNAKTKPREEEYNSTYRVVSVLTVLHQDWLNGKEYKCKVSNKALPAPIEKTISKAKGQPREPQVYTLPPSREEMTKNQVSLTCDVSGFYPSDIAVEWESDGQPENNYKTTPPVLDSDGSFFLYSKLTVDKSRWEQGDVFSCSVMHEALHNHYTQKSLSLSPGK chain 2: not shown chain 3: DIVMTQSPSSLSASVGDRVTITCRASQSINSWLSWYQQKPGKPPKLLIYGASNLASGVPSRFKGSGSGTDFTLTISSLQPEDFATYYCQNNYGIIAAGATFGGGTKVEIKRTVAAPSVFIFPPSDEQLKSGTASVVCLLNNFYPREAKVQWKVDNALQSGNSQESVTEQDSKDSTYSLSSTLTLSKADYEKHKVYACEVTHQGLSSPVTKSFNRGEC
13.9	XENP41336 (1D7B4, 1+1 VLVH) (antibody) chain 1: EVQLLESGGGLVQPGGSLRLSCAVSGFSLSSYGVIWVRQAPGKGLEYVSWVSSGGSTNYASSVKGRFTISRDTSKNTVYLQMNSLRAEDTAVYFCARGATNSGTDIWGPGTLVTVSSASTKGPSVFPLAPSSKSTSGGTAALGCLVKDYFPEPVTVSWNSGALTSGVHTFPAVLQSSGLYSLSSVVTVPSSSLGTQTYICNVNHKPSDTKVDKKVEPKSCDKTHTCPPCPAPELLGGPSVFLFPPKPKDTLMISRTPEVTCVVVDVSHEDPEVKFNWYVDGVEVHNAKTKPREEEYNSTYRVVSVLTVLHQDWLNGKEYKCKVSNKALPAPIEKTISKAKGQPREPQVYTLPPSREEMTKNQVSLTCDVSGFYPSDIAVEWESDGQPENNYKTTPPVLDSDGSFFLYSKLTVDKSRWEQGDVFSCSVMHEALHNHYTQKSLSLSPGK chain 2: not shown chain 3: DIVMTQSPSSLSASVGDRVTITCRASQSINSWLSWYQQKPGKPPKLLIYGASNLASGVPSRFKGSGSGTDFTLTISSLQPEDFATYYCQNNYGIIAAGATFGGGTKVEIKRTVAAPSVFIFPPSDEQLKSGTASVVCLLNNFYPREAKVQWKVDNALQSGNSQESVTEQDSKDSTYSLSSTLTLSKADYEKHKVYACEVTHQGLSSPVTKSFNRGEC
122	XENP40584 (LB_1001, 2+1 VHVL) (antibody) chain 1: EVQLLESGGGLVQPGGSLRLSCAVSGFSLSSYGVIWVRQAPGKGLEYVSWVSSGGSTNYASSVKGRFTISRDTSKNTVYLQMNSLRAEDTAVYFCARGATNSGTDIWGPGTLVTVSSASTKGPSVFPLAPSSKSTSGGTAALGCLVKDYFPEPVTVSWNSGALTSGVHTFPAVLQSSGLYSLSSVVTVPSSSLGTQTYICNVNHKPSDTKVDKKVEPKSCDKTHTCPPCPAPELLGGPSVFLFPPKPKDTLMISRTPEVTCVVVDVSHEDPEVKFNWYVDGVEVHNAKTKPREEEYNSTYRVVSVLTVLHQDWLNGKEYKCKVSNKALPAPIEKTISKAKGQPREPQVYTLPPSREEMTKNQVSLTCDVSGFYPSDIAVEWESDGQPENNYKTTPPVLDSDGSFFLYSKLTVDKSRWEQGDVFSCSVMHEALHNHYTQKSLSLSPGK chain 2: not shown chain 3: DIVMTQSPSSLSASVGDRVTITCRASQSINSWLSWYQQKPGKPPKLLIYGASNLASGVPSRFKGSGSGTDFTLTISSLQPEDFATYYCQNNYGIIAAGATFGGGTKVEIKRTVAAPSVFIFPPSDEQLKSGTASVVCLLNNFYPREAKVQWKVDNALQSGNSQESVTEQDSKDSTYSLSSTLTLSKADYEKHKVYACEVTHQGLSSPVTKSFNRGEC

— patent publication US20230151095A1 (published 2023)
